Key:
[1] = molecular target: T1, cynomolgus PD-1 (cynomolgus); assay: BLI, antibody on AHC tip, soluble PD-1
T1 construct: also called cyno PD-1

[2] = molecular target: T2, human PD-1 (human, UniProt Q15116 25-167, limits assumed); assay: BLI, antibody on AHC tip, soluble PD-1
T2 construct: also called huPD-1

[3] = molecular target: T3, mouse PD-1 (mouse, UniProt Q02242 25-167, limits assumed); assay: BLI, antibody on AHC tip
T3 sequence (looked up): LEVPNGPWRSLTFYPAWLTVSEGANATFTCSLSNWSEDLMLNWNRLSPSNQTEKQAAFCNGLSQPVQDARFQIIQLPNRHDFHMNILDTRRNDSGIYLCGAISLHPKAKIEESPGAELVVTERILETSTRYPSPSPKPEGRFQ

[4] = molecular target: PD-1 on PD-1 reporter Jurkat cells; assay: cell-based or functional assay
[5] = molecular target: T4, human MAdCAM (human, UniProt Q13477 19-317, limits assumed); assay: BLI, antibody on AHC tip, soluble MAdCAM
T4 construct: also called huMAdCAM
T4 sequence (looked up): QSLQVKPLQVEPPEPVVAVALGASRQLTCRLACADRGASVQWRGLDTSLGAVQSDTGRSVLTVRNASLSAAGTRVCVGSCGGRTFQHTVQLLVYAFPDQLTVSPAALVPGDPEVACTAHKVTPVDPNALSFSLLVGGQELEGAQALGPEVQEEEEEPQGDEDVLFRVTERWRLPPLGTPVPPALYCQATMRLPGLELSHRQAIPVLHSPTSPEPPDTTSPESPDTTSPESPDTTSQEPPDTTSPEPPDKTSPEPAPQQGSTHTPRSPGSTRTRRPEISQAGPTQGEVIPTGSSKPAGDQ
Description: (§1) Anti-human IgG Fc (AHC) biosensors were equilibrated in assay buffer for 20 minutes. Test article was diluted to 10 μg/mL in assay buffer (lx PBS, 1% BSA, 0.05% Tween20). A seven-point serial dilution of human and cynomolgus PD-1 or human, cynomolgus and mouse MAdCAM was prepared in assay buffer, starting at 1000 nM down to 15.625 nM. For PD-1 binding, test article was loaded on tips for 180 s followed by a 180 s association phase with PD-1 and 240 s dissociation phase in assay buffer. For MAdCAM binding, test article was loaded on tips for 180 s followed by a 120 s association phase with MAdCAM and 180 s dissociation phase in assay buffer. […] Accordingly, PMAB65 binds human, cyno, and mouse PD-1 and MAdCAM.

[6] = molecular target: T5, cynomolgus MAdCAM (cynomolgus); assay: BLI, antibody on AHC tip, soluble MAdCAM
T5 chain: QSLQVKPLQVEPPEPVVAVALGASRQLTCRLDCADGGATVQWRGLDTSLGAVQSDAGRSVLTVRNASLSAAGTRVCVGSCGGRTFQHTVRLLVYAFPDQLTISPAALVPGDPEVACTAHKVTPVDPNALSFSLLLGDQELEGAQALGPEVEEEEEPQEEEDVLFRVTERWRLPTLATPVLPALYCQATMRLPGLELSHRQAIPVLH
Description: as §1

[7] = molecular target: T6, mouse MAdCAM (mouse, UniProt Q61826 22-364); assay: BLI, antibody on AHC tip, soluble MAdCAM
T6 sequence (looked up): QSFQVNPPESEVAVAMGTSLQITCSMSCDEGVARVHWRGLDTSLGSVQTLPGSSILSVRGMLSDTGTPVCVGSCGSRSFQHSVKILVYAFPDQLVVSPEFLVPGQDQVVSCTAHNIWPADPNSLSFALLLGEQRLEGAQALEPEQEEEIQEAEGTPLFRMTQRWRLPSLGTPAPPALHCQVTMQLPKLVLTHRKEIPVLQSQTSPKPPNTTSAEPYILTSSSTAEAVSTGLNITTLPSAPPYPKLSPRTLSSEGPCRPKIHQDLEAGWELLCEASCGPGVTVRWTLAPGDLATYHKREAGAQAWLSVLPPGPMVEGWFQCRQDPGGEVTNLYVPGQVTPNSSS
Description: as §1

[8] = molecular target: T4, human MAdCAM; assay: BLI Octet
Description: (§2) Anti-human Fc biosensors were equilibrated in assay buffer (1% BSA in 1×PBS with 0.05% Tween-20) for 10 minutes before the experiment was set-up. Test articles were diluted to 5 μg/mL in assay buffer and 200 μL pipetted to 96 well plate. Human MAdCAM was titrated down, two-fold dilutions (starting at 600 nM as the highest concentration, 7-point dilution). Experiment was run using data acquisition software version 10.0 for OCTET96 RED. Test articles were captured using anti-human Fc biosensors for 180 s. Biosensors loaded with test articles were then equilibrated in assay buffer for 120 s. Association was performed in wells with huMAdCAM for 180 seconds. Dissociation was performed in wells with assay buffer for 180 s. Kinetic parameters (kon and kdis) and dissociation constant (KD) were calculated from a 1:1 global fit model using the data analysis software of the Octet96 RED software version 10.

[9] = molecular target: T4, human MAdCAM; assay: BLI Octet, against PRNT1
Description: as §2

T2 sequence (Q15116 25-167 limits assumed): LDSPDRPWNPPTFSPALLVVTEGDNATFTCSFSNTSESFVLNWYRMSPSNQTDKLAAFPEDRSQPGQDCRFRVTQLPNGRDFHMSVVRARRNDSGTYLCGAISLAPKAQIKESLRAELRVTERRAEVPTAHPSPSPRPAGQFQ

B1: PMAB65 (bispecific antibody, human IgG1, kappa)
heavy: EVQLLESGGGLVQPGGSLRLSCAASGFTFSSYDMSWVRQAPGKGLEWVSGITISGGSTYYADSVKGRFTISRDNSKNTLYLQMNSLRAEDTAVYYCARGRGGSGWLDYWGQGTTVTVSSASTKGPSVFPLAPSSKSTSGGTAALGCLVKDYFPEPVTVSWNSGALTSGVHTFPAVLQSSGLYSLSSVVTVPSSSLGTQTYICNVNHKPSNTKVDKKVEPKSCDKTHTCPPCPAPEAAGAPSVFLFPPKPKDTLMISRTPEVTCVVVDVSHEDPEVKFNWYVDGVEVHNAKTKPREEQYNSTYRVVSVLTVLHQDWLNGKEYKCKVSNKALPAPIEKTISKAKGQPREPQVYTLPPSREEMTKNQVSLTCLVKGFYPSDIAVEWESNGQPENNYKTTPPVLDSDGSFFLYSKLTVDKSRWQQGNVFSCSVMHEALHNHYTQKSLSLSPGGGGGSGGGGSGGGGSEVQLLESGGGLVQPGGSLRLSCAASGFTFSSYWMHWVRQAPGKGLEWVSYISGSGGYTNYADSVKGRFTISRDNSKNTLYLQMNSLRAEDTAVYYCARDRPYYYDMDVWGKGTTVTVSSGGGGSGGGGSGGGGSGGGGSDIQMTQSPSSLSASVGDRVTITCRASQSISSSLAWYQQKPGKAPKLLIYAASSLQSGVPSRFSGSGSGTDFTLTISSLQPEDFATYYCQQYKSYPVTFGQGTKVEIK
light: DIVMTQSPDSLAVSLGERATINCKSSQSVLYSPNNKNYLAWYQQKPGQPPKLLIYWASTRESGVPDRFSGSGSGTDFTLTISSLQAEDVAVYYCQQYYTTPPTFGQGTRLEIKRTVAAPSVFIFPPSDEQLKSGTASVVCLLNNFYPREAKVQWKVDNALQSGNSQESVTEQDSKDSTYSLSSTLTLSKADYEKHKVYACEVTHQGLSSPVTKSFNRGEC
Kd [1]: 30.3 nM | Kd [2]: 32.6 nM | binding result [3]: no binding | PD-1 reporter Jurkat cells on test-article-loaded MAdCAM-expressing CHO cells; EC50 [4]: 0.78 nM | SHP-2 recruitment, Ig-tethered test article, PD-1 reporter Jurkat cells; EC50 [4]: 3.04 nM | Kd [5]: 75.5 nM | Kd [6]: 24.3 nM | Kd [7]: 269 nM

B2: MIAB169 (antibody, human IgG1, kappa)
heavy: EVQLLESGGGLVQPGGSLRLSCAASGFTFSDFWMHWVRQAPGKGLEWISYISGDSGYTNYADSVKGRFTISRDNSKNTLYLQMNSLRAEDTAVYYCARDRPYYYIMDVWGKGTTVTVSSASTKGPSVFPLAPSSKSTSGGTAALGCLVKDYFPEPVTVSWNSGALTSGVHTFPAVLQSSGLYSLSSVVTVPSSSLGTQTYICNVNHKPSNTKVDKKVEPKSCDKTHTCPPCPAPEAAGAPSVFLFPPKPKDTLMISRTPEVTCVVVDVSHEDPEVKFNWYVDGVEVHNAKTKPREEQYNSTYRVVSVLTVLHQDWLNGKEYKCKVSNKALPAPIEKTISKAKGQPREPQVYTLPPSREEMTKNQVSLTCLVKGFYPSDIAVEWESNGQPENNYKTTPPVLDSDGSFFLYSKLTVDKSRWQQGNVFSCSVMHEALHNHYTQKSLSLSPGGGGGSAPTSSSTKKTQLQLEHLLLDLQMILNGINNYKNPKLTRMLTFKFYMPKKATELKHLQCLEEELKPLEEALNLAPSKNFHLRPRDLISDINVIVLELKGSETTFMCEYADETATIVEFINRWITFSQSIISTLT
light: DIQMTQSPSSLSASVGDRVTITCRASQSVSRSLAWYQQKPGKAPKLLIYAASSLQSGVPSRFSGSGSGTDFTLTISSLQPEDFATYYCQQYKSYPVTFGQGTKVEIKRTVAAPSVFIFPPSDEQLKSGTASVVCLLNNFYPREAKVQWKVDNALQSGNSQESVTEQDSKDSTYSLSSTLTLSKADYEKHKVYACEVTHQGLSSPVTKSFNRGEC
notes: also called MIAB169-CHO; MIAB169-HEK
fold lower affinity than parent PRNT1 [8]: 10 fold

B3: MIAB182 (antibody, human IgG1, kappa)
heavy: EVQLLESGGGLVQPGGSLRLSCAASGFTFSSYWMHWVRQAPGKGLEWVSAISGSGGSTYYADSVKGRFTISRDNSKNTLYLQMNSLRAEDTAVYYCARDRPYYYYMDVWGKGTTVTVSSASTKGPSVFPLAPSSKSTSGGTAALGCLVKDYFPEPVTVSWNSGALTSGVHTFPAVLQSSGLYSLSSVVTVPSSSLGTQTYICNVNHKPSNTKVDKKVEPKSCDKTHTCPPCPAPEAAGAPSVFLFPPKPKDTLMISRTPEVTCVVVDVSHEDPEVKFNWYVDGVEVHNAKTKPREEQYNSTYRVVSVLTVLHQDWLNGKEYKCKVSNKALPAPIEKTISKAKGQPREPQVYTLPPSREEMTKNQVSLTCLVKGFYPSDIAVEWESNGQPENNYKTTPPVLDSDGSFFLYSKLTVDKSRWQQGNVFSCSVMHEALHNHYTQKSLSLSPGGGGGSAPTSSSTKKTQLQLEHLLLDLQMILNGINNYKNPKLTRMLTFKFYMPKKATELKHLQCLEEELKPLEEALNLAPSKNFHLRPRDLISDINVIVLELKGSETTFMCEYADETATIVEFINRWITFSQSIISTLT
light: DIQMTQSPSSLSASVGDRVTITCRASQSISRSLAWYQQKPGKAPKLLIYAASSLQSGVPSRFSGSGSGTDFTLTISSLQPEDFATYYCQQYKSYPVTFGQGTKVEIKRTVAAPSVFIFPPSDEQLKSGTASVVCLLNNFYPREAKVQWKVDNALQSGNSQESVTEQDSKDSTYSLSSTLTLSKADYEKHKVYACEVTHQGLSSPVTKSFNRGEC
notes: also called MIAB182-001
fold reduction of MAdCAM affinity [9]: 10 fold

B4: MIAB183 (antibody, human IgG1, kappa)
heavy: EVQLLESGGGLVQPGGSLRLSCAASGFTFSSYWMHWVRQAPGKGLEWVSAISGSGGSTYYADSVKGRFTISRDNSKNTLYLQMNSLRAEDTAVYYCARDRPYYYYMDVWGKGTTVTVSSASTKGPSVFPLAPSSKSTSGGTAALGCLVKDYFPEPVTVSWNSGALTSGVHTFPAVLQSSGLYSLSSVVTVPSSSLGTQTYICNVNHKPSNTKVDKKVEPKSCDKTHTCPPCPAPEAAGAPSVFLFPPKPKDTLMISRTPEVTCVVVDVSHEDPEVKFNWYVDGVEVHNAKTKPREEQYNSTYRVVSVLTVLHQDWLNGKEYKCKVSNKALPAPIEKTISKAKGQPREPQVYTLPPSREEMTKNQVSLTCLVKGFYPSDIAVEWESNGQPENNYKTTPPVLDSDGSFFLYSKLTVDKSRWQQGNVFSCSVMHEALHNHYTQKSLSLSPGGGGGSAPTSSSTKKTQLQLEHLLLDLQMILNGINNYKNPKLTRMLTFKFYMPKKATELKHLQCLEEELKPLEEALNLAPSKNFHLRPRDLISDINVIVLELKGSETTFMCEYADETATIVEFINRWITFSQSIISTLT
light: DIQMTQSPSSLSASVGDRVTITCRASQSVSSSLAWYQQKPGKAPKLLIYAASSLQSGVPSRFSGSGSGTDFTLTISSLQPEDFATYYCQQYKSYPVTFGQGTKVEIKRTVAAPSVFIFPPSDEQLKSGTASVVCLLNNFYPREAKVQWKVDNALQSGNSQESVTEQDSKDSTYSLSSTLTLSKADYEKHKVYACEVTHQGLSSPVTKSFNRGEC
notes: also called MIAB183-001
fold reduction of MAdCAM affinity [9]: 20 fold

B5: MIAB184 (antibody, human IgG1, kappa)
heavy: EVQLLESGGGLVQPGGSLRLSCAASGFTFSSYWMHWVRQAPGKGLEWVSAISGSGGSTYYADSVKGRFTISRDNSKNTLYLQMNSLRAEDTAVYYCARDRPYYYYMDVWGKGTTVTVSSASTKGPSVFPLAPSSKSTSGGTAALGCLVKDYFPEPVTVSWNSGALTSGVHTFPAVLQSSGLYSLSSVVTVPSSSLGTQTYICNVNHKPSNTKVDKKVEPKSCDKTHTCPPCPAPEAAGAPSVFLFPPKPKDTLMISRTPEVTCVVVDVSHEDPEVKFNWYVDGVEVHNAKTKPREEQYNSTYRVVSVLTVLHQDWLNGKEYKCKVSNKALPAPIEKTISKAKGQPREPQVYTLPPSREEMTKNQVSLTCLVKGFYPSDIAVEWESNGQPENNYKTTPPVLDSDGSFFLYSKLTVDKSRWQQGNVFSCSVMHEALHNHYTQKSLSLSPGGGGGSAPTSSSTKKTQLQLEHLLLDLQMILNGINNYKNPKLTRMLTFKFYMPKKATELKHLQCLEEELKPLEEALNLAPSKNFHLRPRDLISDINVIVLELKGSETTFMCEYADETATIVEFINRWITFSQSIISTLT
light: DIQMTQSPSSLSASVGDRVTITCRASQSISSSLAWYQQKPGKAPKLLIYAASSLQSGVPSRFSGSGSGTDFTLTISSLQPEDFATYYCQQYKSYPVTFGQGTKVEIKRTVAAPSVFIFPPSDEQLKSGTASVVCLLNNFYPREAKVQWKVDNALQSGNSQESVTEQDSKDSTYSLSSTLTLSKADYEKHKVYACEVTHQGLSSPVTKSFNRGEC
notes: also called MIAB184-001
fold reduction of MAdCAM affinity [9]: 40 fold
